In PMC9610768 (2022):
Each block holds one binder with its values, some of them ahead of it.

Biological target: actin filament (skeletal muscle alpha-actin) (Oryctolagus cuniculus, UniProt P68135)
Assay: co-sedimentation

- Kd: 3400 nM
B1: GFP-Rng2CHD CHD (protein)
chain: MDVNVGLSRLQSQAGAPVGTKGSNTRLAAKQRETLQAYDYLCRVDEAKKWIEECLGTDLGPTSTFEQSLRNGVVLALLVQKFQPDKLIKIFYSNELQFRHSDNINKFLDFIHGIGLPEIFHFELTDIYEGKNLPKVIYCIHALSYFLSMQDLAPPLIKSDENLSFTDEDVSIIVRRLRQSNVILPNFKA
modifications: GFP fused to Rng2CHD N-terminus, phalloidin-stabilized actin filaments

- Kd: 920 nM
B2: Rng2CHD CHD (protein)
chain: B1 chain
modifications: phalloidin-stabilized actin filaments
